The labels stand for the following.
B1: PIH1 domain-containing protein 1 (Mus musculus), Q9CQJ2 (parent)
chain: MADSTFLAPELSDTESMGEETVRFQELLLKASKELQQAQTARPDSTQIQPKPGFCVKTNSSEGKVFINICHSPSIPPPADVTEDELLQMLEEDQAGFRIPMSLGEPHAELDAKGQGCTAYDVAVNSNFYLRMQNSDFLRELVVTIAREGLEDKYGLQLNPEWRMLKYRSFLGSISQQNIRSQQRPRIQELGTLDASGSLGTCHGPERPHLNLWLEAPDLLLAEVDLPKLDGAQGLALEIGENRLVIGGPQQLYHLDATVPLRINSEASRAAFHRRRKQLMVSMPLLTASS

The record followed here is IntAct's records for PubMed 24794838.

Variants of B1 are the subject of the test. The following applies: with telo2_mouse Telo2, Q9DC40.
telo2_mouse Telo2, Q9DC40, sequence (Q9DC40 whole entry): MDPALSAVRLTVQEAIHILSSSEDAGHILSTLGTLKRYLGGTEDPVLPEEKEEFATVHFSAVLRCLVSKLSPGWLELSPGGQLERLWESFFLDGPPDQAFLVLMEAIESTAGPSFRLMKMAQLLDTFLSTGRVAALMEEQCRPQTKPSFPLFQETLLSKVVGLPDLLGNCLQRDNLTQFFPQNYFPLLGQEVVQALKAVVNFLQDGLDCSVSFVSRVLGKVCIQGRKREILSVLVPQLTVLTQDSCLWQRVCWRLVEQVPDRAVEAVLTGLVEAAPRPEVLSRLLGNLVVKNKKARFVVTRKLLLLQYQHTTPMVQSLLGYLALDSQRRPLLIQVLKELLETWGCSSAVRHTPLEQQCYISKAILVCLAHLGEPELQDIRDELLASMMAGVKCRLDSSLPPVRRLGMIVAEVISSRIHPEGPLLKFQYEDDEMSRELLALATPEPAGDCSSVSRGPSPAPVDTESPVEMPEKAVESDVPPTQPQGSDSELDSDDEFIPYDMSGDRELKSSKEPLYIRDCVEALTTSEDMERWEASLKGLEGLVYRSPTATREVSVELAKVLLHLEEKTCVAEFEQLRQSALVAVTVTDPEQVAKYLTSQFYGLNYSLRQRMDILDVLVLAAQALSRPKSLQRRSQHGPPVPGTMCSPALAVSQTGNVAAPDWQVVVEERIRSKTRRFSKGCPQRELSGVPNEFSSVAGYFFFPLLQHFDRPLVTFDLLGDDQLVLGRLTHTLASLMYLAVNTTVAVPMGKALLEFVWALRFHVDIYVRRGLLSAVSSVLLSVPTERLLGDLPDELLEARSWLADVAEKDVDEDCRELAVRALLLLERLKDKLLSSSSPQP
Turning to MADSTFLAPELSDTESMGEETVRFQELLLKASKELQQAQTARPDSTQIQPKPGFCVETNSSEGKVFINICHSPSIPPPADVTEDELLQMLEEDQAGFRIPMSLGEPHAELDAKGQGCTAYDVAVNSNFYLRMQNSDFLRELVVTIAREGLEDKYGLQLNPEWRMLKYRSFLGSISQQNIRSQQRPRIQELGTLDASGSLGTCHGPERPHLNLWLEAPDLLLAEVDLPKLDGAQGLALEIGENRLVIGGPQQLYHLDATVPLRINSEASRAAFHRRRKQLMVSMPLLTASS [K57E], the “effect of a mutation on the interaction” value is “disrupting interaction strength”.

As for MADSTFLAPELSDTESMGEETVRFQELLLKASKELQQAQTARPDSTQIQPKPGFCVKTNSSEGEVFINICHSPSIPPPADVTEDELLQMLEEDQAGFRIPMSLGEPHAELDAKGQGCTAYDVAVNSNFYLRMQNSDFLRELVVTIAREGLEDKYGLQLNPEWRMLKYRSFLGSISQQNIRSQQRPRIQELGTLDASGSLGTCHGPERPHLNLWLEAPDLLLAEVDLPKLDGAQGLALEIGENRLVIGGPQQLYHLDATVPLRINSEASRAAFHRRRKQLMVSMPLLTASS [K64E], the “effect of a mutation on the interaction” value is listed as “disrupting interaction strength”.
